Twelve molecules from US20250027068A1 (published 2025) can be followed below.

Positions count from the first letter of the chain named.

The labels stand for the following.
B1: PRT-205 (enzyme)
chain: MEVVEVWPYGQNPNGKTEILSQTEDSESLQRLRDIEDFQAEKKKEGVVYTKWLDGVDVDDHDFRKIVDGNIAYYATPLLNGRGFYDINKDFNRDSDKCAAAVAANMFHYWLDRNRDNVDRFLKQNPEKHGIIELPDGQLKLSDFLNTYESDNGYRDKSKLFDFISNNFNGPVWTDKLLDNYINGYAYNYKYGRTIEDPTKNTSKINFFKEVFNEKILTNNHSIRNYNTFSDLLSEALYTGKAIGLSYGPAGLRHSLGHIISVWGADLDADGNVVAIYVTDSDDKKLTIGDERVGLKRYKVSSDDENRLRLTAYEETHNTGGQIRGIYTLDTGKQAWADYFDKTEQTGTDQAEQLEHHHHHH
B2: PRT-194 (enzyme)
chain: MANQEIRYSEVTPYHVTSVWTKGVTPPDHDFANFTQGEDVFHAPYVANQGWYDITKTFNGKDDLLCGAATAGNMLHWWFDQNKDQIKRYLEEHPEKQKINFNGEQMFDVKEAIDTKNHQLDSKLFEYFKEKAFPYLSTKHLGVFPDHVIDMFINGYRLSLTNHGPTPVKEGSKDPRGGIFDAVFTRGDQSKLLTSRHDFKEKNLKEISDLIKKELTEGKALGLSHTYANVRHSINHVINLWGADFDSNGNLKAIYVTDSDDKKLTISNASIGMKKYFVGVNSAGKVAISAKEIKEDNIGAQVLGLFTLSTGQDSWNQTN
B3: PRT-195 (enzyme)
chain: B2 chain with A32R, N33K, F34I, T35V, Q36D, S267G, N268D, A269E, S270R
B4: PRT-196 (enzyme)
chain: MEVVEVWPYGQNPNGKTEILSQTEDSESLQRLRDIEDFQAEKKMQNVVYTKWLDGVDVKDHDFRKIVDGNIAYYATPLLNGRGFYDINKDFNRDSDKCAAAVAANMFHYWLDINRDNVDRFLRQNPEKHGIIELPDGQLKLSDFLNTYESDHGYRDKSKLFDFISNNFNGPVWTDKLLDNYINGYAYNYKYGRTIEDPTKNTSKINFFKEVFNEKILTNNHSIRNQNEFSVLLSEALYTGKAIGLSYGPAGLRHSLGHIISVWGADLDADGNVVAIYVTDSDDKKLTIGDERVGLKRYKISTDDENRLRLTAYEETHNTGGQIRGLWTLDTGKYAWADYFDKTEQTGTDQAEQLEHHHHHH
B5: PRT-199 (enzyme)
chain: B4 chain with M44K, I113R, H152D, N306G, Y334Q
B6: PRT-201 (enzyme)
chain: B4 chain with M44K, V67K, A72E, I113R, H152D, N306G, L308A, W327Y, Y334Q
B7: PRT-203 (enzyme)
chain: B4 chain with M44K, V67K, A72E, I113R, H152D, N306G, L308A, Y334Q
B8: PRT-200 (enzyme)
chain: B4 chain with V231D, L308A, H317D, Y334Q
B9: PRT-198 (enzyme)
chain: B4 chain with M44K, N46G, V231D, W327Y, Y334Q
B10: PRT-204 (enzyme)
chain: B4 chain with D57T, I113R, R123S, H152N, N220I, V231D, N306G, L308A, H317D, W327E
B11: PRT-202 (enzyme)
chain: B4 chain with M44K, H152Y, E210K, N220I, V231D, N306G, H317D, Q322E, W327Y, Y334Q
B12: PRT-197 (enzyme)
chain: B4 chain with V231D, L308A, H317D, W327Y, Y334Q
Note: test concentration or dose not given here.

The experiment addresses pooled human IgG (human). The experiment can be described thus: cell-based or functional assay.
As to B1, the “Enzyme Activity Endpoint Assay (purified): Fab′2” value amounted to 127 ng/µL, the “Enzyme Activity Endpoint Assay (purified): Fc” value was found to be 216 ng/µL, the “Enzyme Activity Endpoint Assay (purified): IgG” value turned out to be 1090 ng/µL and the “Enzyme Activity Endpoint Assay (purified): scIgG” value is 278 ng/µL.

Consider B2, for which the “Enzyme Activity Endpoint Assay (purified): Fab′2” value amounted to 0 ng/µL, the “Enzyme Activity Endpoint Assay (purified): Fc” value was found to be 12 ng/µL, the “Enzyme Activity Endpoint Assay (purified): IgG” value came out at 301 ng/µL and the “Enzyme Activity Endpoint Assay (purified): scIgG” value is 0 ng/µL.

In the case of B3, the “Enzyme Activity Endpoint Assay (purified): Fab′2” value is 0 ng/µL, the “Enzyme Activity Endpoint Assay (purified): Fc” value worked out at 30 ng/µL, the “Enzyme Activity Endpoint Assay (purified): IgG” value stood at 829 ng/µL and the “Enzyme Activity Endpoint Assay (purified): scIgG” value was determined as 15 ng/µL.

For the molecule B4, the “Enzyme Activity Endpoint Assay (purified): Fab′2” value is 152 ng/µL, the “Enzyme Activity Endpoint Assay (purified): Fc” value stood at 498 ng/µL, the “Enzyme Activity Endpoint Assay (purified): IgG” value worked out at 707 ng/µL and the “Enzyme Activity Endpoint Assay (purified): scIgG” value stood at 504 ng/µL.

Turning to B5, the “Enzyme Activity Endpoint Assay (purified): Fab′2” value worked out at 95 ng/µL, the “Enzyme Activity Endpoint Assay (purified): Fc” value amounted to 473 ng/µL, the “Enzyme Activity Endpoint Assay (purified): IgG” value was found to be 797 ng/µL and the “Enzyme Activity Endpoint Assay (purified): scIgG” value is 544 ng/µL.

For the molecule B6, the “Enzyme Activity Endpoint Assay (purified): Fab′2” value is 0 ng/µL, the “Enzyme Activity Endpoint Assay (purified): Fc” value is 0 ng/µL, the “Enzyme Activity Endpoint Assay (purified): IgG” value came to 2720 ng/µL and the “Enzyme Activity Endpoint Assay (purified): scIgG” value amounted to 0 ng/µL.

With B7, the “Enzyme Activity Endpoint Assay (purified): Fab′2” value turned out to be 0 ng/µL, the “Enzyme Activity Endpoint Assay (purified): Fc” value came out at 0 ng/µL, the “Enzyme Activity Endpoint Assay (purified): IgG” value was found to be 2130 ng/µL and the “Enzyme Activity Endpoint Assay (purified): scIgG” value is 0 ng/µL.

Turning to B8, the “Enzyme Activity Endpoint Assay (purified): Fab′2” value amounted to 0 ng/µL, the “Enzyme Activity Endpoint Assay (purified): Fc” value turned out to be 0 ng/µL, the “Enzyme Activity Endpoint Assay (purified): IgG” value is 2510 ng/µL and the “Enzyme Activity Endpoint Assay (purified): scIgG” value came to 0 ng/µL.

For B9, the “Enzyme Activity Endpoint Assay (purified): Fab′2” value was 621 ng/µL, the “Enzyme Activity Endpoint Assay (purified): Fc” value worked out at 0 ng/µL, the “Enzyme Activity Endpoint Assay (purified): IgG” value is 2320 ng/µL and the “Enzyme Activity Endpoint Assay (purified): scIgG” value was found to be 0 ng/µL.

Take B10: the “Enzyme Activity Endpoint Assay (purified): Fab′2” value worked out at 0 ng/µL, the “Enzyme Activity Endpoint Assay (purified): Fc” value turned out to be 0 ng/µL, the “Enzyme Activity Endpoint Assay (purified): IgG” value stood at 2260 ng/µL and the “Enzyme Activity Endpoint Assay (purified): scIgG” value turned out to be 0 ng/µL.

Turning to B11, the “Enzyme Activity Endpoint Assay (purified): Fab′2” value was 25 ng/µL, the “Enzyme Activity Endpoint Assay (purified): Fc” value worked out at 402 ng/µL, the “Enzyme Activity Endpoint Assay (purified): IgG” value was 1130 ng/µL and the “Enzyme Activity Endpoint Assay (purified): scIgG” value worked out at 553 ng/µL.

For the molecule B12, the “Enzyme Activity Endpoint Assay (purified): Fab′2” value amounted to 0 ng/µL, the “Enzyme Activity Endpoint Assay (purified): Fc” value was 179 ng/µL, the “Enzyme Activity Endpoint Assay (purified): IgG” value was found to be 1800 ng/µL and the “Enzyme Activity Endpoint Assay (purified): scIgG” value was 121 ng/µL.
